From US20030100492A1, “Proteoglycans and pharmaceutical compositions comprising them” (published 2003)

B1: Mouse syndecan-4 (full length) overexpressed in CHO-KI cells (other)
chain: ESIRETEVIDPQDLLEGRYFSGALPDDEDAGGSDDFELSGSGDLDDTEEPRPFPEVIEPLVPLDNHIPENAQPGIRVPSEPKELEENEVIPKRAPSDVGDDMSNKVSMSSTVQGSNIFERTEVLAALIVGGVVGILFAVFLILLLVYRMKKKDEGSYDLGKKPIYKKAPTNEFYA
modifications: heparan sulfate chains

How the values were obtained:
[1] = biological target: Soluble FGFR2-alkaline phosphatase fusion protein (FR2-AP) (human) (UniProt P05187); assay: FGF on Syn4-Fc, FGFR-AP; alkaline phosphatase activity and cross-linking of the receptors to radio-labeled bFGF
Recombinant human FGF2 = Recombinant human FGF2 (human, UniProt P09038, 125I label in the FIG. 1 assay and in the FGFR2-AP direct binding assay); assay: immunoprecipitation with anti-P710, incubation with 50 ng FGF2, FB-8 immunoblot

Molecule | fold less than with FGFR1 [1] [fold less] | fold more FGF2 bound than syndecan-4 from the CHO-KI parental cells (Recombinant human FGF2) [fold]
Recombinant human FGF2 (from UniProt P09038) (ligand) | 2 | –
B1 | – | ~3
